# Test results: US20080248043A1 (Amgen, published 2008)
# Positions count from the first letter of the chain named.
# B1: 1B5 (antibody, V domains shown)
# VH: QVQLVESGGGVVQPGRSLRLSCAASGFTFSSYGMHWVRQAPGKGLEWVAVIWYDGSNKYYADSVKGRFTISRDNSKNTLYLQMNSLRAEDTAVYYCARGDFYWFDPWGQGTLVTVSS
# VL: DIQMTQSPSSLSASVGDRVTITCRASQGIRSDLGWYQQRPGKTPKRLIYAASSLQSGVPSRFSGSGSGTEFTLTISSLQPEDFATYYCQQYNSYPLTFGGGTKVEIK
# B2: 3C7 (antibody, V domains shown)
# VH: QVQLVESGGGVVQPGTSLRLSCAASGFTFSSYGIHWVRQAPGKGLEWVAVIWYDGSNKFYADSVKGRFTISRDNSKNTLYLQMNSLRAEDTAVYYCARDPLGYCSSTSCSYFDYWGQGTLVTVSS
# VL: DIQMTQSPSSVSASVGDRVTITCRASQGISNWLAWYQQKPGKAPKLLIYAASSLQSGVPSRFSGSGSGTDFTLTIRSLQPEDFATYYCQQANNFPLTFGGGTKVEIK
# B3: 6B1 (antibody, V domains shown)
# VH: B2 VH with Y60H
# VL: B2 VL with R76S
# B4: 3H12 (antibody, V domains shown)
# VH: QVQLQESGPGLVKPSETLSLTCTVSDGSISSFYWSWIRQPPGKGLEWIGYIYYSGSTNYNPSLKSRVTISVDTSKNQFSLKLSSVTAADTAVYYCARDYDILTGYSNYYGMDVWGQGTTVTVSS
# VL: B1 VL with S31N, R39K, T43A, Q89L, Y91H, L96F, G100P, V104L, E105D
# B5: 5E4 (antibody, V domains shown)
# VH: QVHLVQSGAEVKKPGASVKVSCKASGYTFTGYYVHWVRQAPGQGLEWMGWINPNSGGTNYAQKFQGRVTMTRDTSISTAYMELSRLRSDDTAVYFCAGGRYLDYWGQGTLVTVSS
# VL: B1 VL with S31N, R39K, T43A, Q89L, L96I, G100Q, K103R, V104L
# B6: 3F3 (antibody, V domains shown)
# VH: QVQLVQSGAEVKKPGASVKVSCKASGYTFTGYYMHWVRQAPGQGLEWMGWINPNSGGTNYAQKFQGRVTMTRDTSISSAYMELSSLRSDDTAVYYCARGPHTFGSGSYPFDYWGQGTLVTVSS
# VL: B1 VL with K42N
# B7: 5A5 (antibody, V domains shown)
# VH: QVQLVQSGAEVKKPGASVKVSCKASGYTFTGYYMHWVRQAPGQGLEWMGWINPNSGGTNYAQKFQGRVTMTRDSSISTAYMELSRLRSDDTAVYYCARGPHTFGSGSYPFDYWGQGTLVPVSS
# VL: B1 VL with M4L
# B8: 6C2 (antibody, V domains shown)
# VH: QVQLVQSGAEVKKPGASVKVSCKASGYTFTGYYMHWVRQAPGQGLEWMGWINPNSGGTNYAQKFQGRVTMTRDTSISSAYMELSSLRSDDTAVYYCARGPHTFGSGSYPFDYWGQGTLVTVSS
# VL: B1 VL with K42N
# B9: 5D6 (antibody, V domains shown)
# VH: QVQLVQSGAEVKKPGASVKVSCKASGYTFTSYGISWVRQAPGQGLEWMGWISAYNGNTNYAQKLQGRVTMTTDTSTNTAYMELRSLRSDDTAVYYCAVGRYLDYWGQGTLVTVSS
# VL: B1 VL with G28D, S31N, R39K, T43A, Q89L
# B10: 4A10 (antibody, V domains shown)
# VH: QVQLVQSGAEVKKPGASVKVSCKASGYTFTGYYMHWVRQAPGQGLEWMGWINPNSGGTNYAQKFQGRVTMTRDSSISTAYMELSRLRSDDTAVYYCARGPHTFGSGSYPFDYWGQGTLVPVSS
# VL: B1 VL with M4L
# B11: 4E2 (antibody, V domains shown)
# VH: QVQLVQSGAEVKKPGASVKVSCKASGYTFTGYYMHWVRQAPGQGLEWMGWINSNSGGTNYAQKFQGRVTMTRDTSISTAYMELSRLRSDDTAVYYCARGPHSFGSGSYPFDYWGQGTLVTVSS
# VL: B1 VL
# Target: T1, S1-Ig (318-510) (SARS-CoV; human, UniProt P59594 318-510)
# Assay: ELISA on coated S1-Ig fragment
row,Binder,binding result
1,B1,no binding

# Target: S1-Ig (12-510) (SARS-CoV; human, UniProt P59594 12-510)
# Assay: ELISA, coated S1-IgG 12-510
row,Binder,Reactivity S1-IgG (ELISA OD) [OD]
1,B2,1.42
2,B3,1.17
3,B1,1.29
4,B4,0.318
5,B5,1.2
6,B6,1.35
7,B7,1.19
8,B8,1.6
9,B9,1.31
10,B10,1.52
11,B11,1.52

# Target: S1-Ig (12-672) (SARS-CoV; human, UniProt P59594 12-672)
# Assay: ELISA, coated S1-IgG 12-672
row,Binder,Reactivity S1-IgG (ELISA OD) [OD]
1,B2,1.09
2,B3,1.13
3,B1,0.463
4,B4,0.185
5,B5,0.735
6,B6,1.07
7,B7,0.986
8,B8,1
9,B9,0.747
10,B10,1.01
11,B11,0.019

# Target: S1-Ig (261-672) (SARS-CoV; human, UniProt P59594 261-672)
# Assay: ELISA, coated S1-IgG 261-672
row,Binder,Reactivity S1-IgG (ELISA OD) [OD]
1,B2,0.357
2,B3,0.369
3,B1,0.11
4,B4,0.09
5,B5,0.298
6,B6,0.325
7,B7,0.337
8,B8,0.586
9,B9,0.355
10,B10,0.567
11,B11,0.551

# Target: T1, S1-Ig (318-510)
# Assay: ELISA, coated S1-IgG 318-510
row,Binder,Reactivity S1-IgG (ELISA OD) [OD]
1,B2,2.19
2,B3,2.09
3,B1,0.191
4,B4,1.3
5,B5,2.27
6,B6,1.89
7,B7,2.31
8,B8,1.85
9,B9,2.12
10,B10,1.79
11,B11,1.84
